Laboratory results published in PMC5512693, “Bacterial RadA is a DnaB-type helicase interacting with RecA to promote bidirectional D-loop extension” (Nature Communications, 2017).
One block for each compound: values may come before it.

Columns and labels:
[1] = biological target: P domain of pneumococcal RadA (RadAP) (S. pneumoniae); assay: SEC-MALS; samples at 2 mg/ml injected on Superdex200 Increase coupled to MALS and refractive index detection, 0.4 ml/min, 298 K; hexamer independent of nucleotide and Mg2+
[2] = biological target: RadA K251A, purified without tag (S. pneumoniae); assay: SEC; gel filtration of purified untagged RadA proteins on Superdex 200 increase 10/300 in 25 mM Tris pH 8, 200 mM NaCl, 20% glycerol; calibrated with 43, 158 and 440 kDa standards
[3] = biological target: RadA R253A, purified without tag (S. pneumoniae); assay: as above
[4] = biological target: RadA K101A, purified without tag (S. pneumoniae); assay: as above
[5] = biological target: full-length pneumococcal RadA (RadAFL), preparation for structural analysis (S. pneumoniae); assay: SEC-MALS; samples at 2 mg/ml injected on Superdex200 Increase coupled to MALS and refractive index detection, 0.4 ml/min, 298 K; hexamer independent of nucleotide and Mg2+
RadA (RadAFL) = system: T1, RadA (RadAFL); assay: coupled spectrophotometric ATPase assay (pyruvate kinase / lactate dehydrogenase, NADH at […] nm), Michaelis-Menten fit; type: biochemical, Streptococcus pneumoniae; conditions: ATP 0-2 mM, 600 nM RadA, 2 uM nt phiX174 ssDNA, 4 mM Mg(OAc)2, pH 7.5, 37 C
T1 construct: full length, 453 residues, hexamer; recombinant in E. coli; ATPase work with native untagged protein (pET21d); crystal with SeMet RadAFL (pET-radA or StrepII-tagged IBA13-radA), C4 domain (1-35) unresolved

stoichiometry N [1]: 6
Compound: P domain of pneumococcal RadA (RadAP) (domain or fragment)

Compound: RadA K251A, purified without tag (enzyme)
stoichiometry N [2]: 6

Compound: RadA R253A, purified without tag (enzyme)
stoichiometry N [3]: 6

Compound: RadA K101A, purified without tag (enzyme)
stoichiometry N [4]: 6

stoichiometry N [5]: 6
Compound: full-length pneumococcal RadA (RadAFL), preparation for structural analysis (enzyme)

Compound: Nc1ncnc2c1ncn2[C@@H]1O[C@H](COP(=O)(O)OP(=O)(O)OP(=O)(O)O)[C@@H](O)[C@H]1O [ATP]
Km (RadA (RadAFL)): 150 µM
